Laboratory results reported in US20240174741A1 (IMMUNOME, published 2024).

How the values were obtained:
Human IL1RAPL1-Fc = biological target: T1, Human IL1RAPL1-Fc (human, UniProt Q9NZN1 19-357, limits assumed); test: MSD plate assay, IL-38 on plate-bound IL1RAPL1-Fc, detected with biotinylated anti-IL-38 clone H127C
T1 construct: Bought reagent
T1 sequence (looked up): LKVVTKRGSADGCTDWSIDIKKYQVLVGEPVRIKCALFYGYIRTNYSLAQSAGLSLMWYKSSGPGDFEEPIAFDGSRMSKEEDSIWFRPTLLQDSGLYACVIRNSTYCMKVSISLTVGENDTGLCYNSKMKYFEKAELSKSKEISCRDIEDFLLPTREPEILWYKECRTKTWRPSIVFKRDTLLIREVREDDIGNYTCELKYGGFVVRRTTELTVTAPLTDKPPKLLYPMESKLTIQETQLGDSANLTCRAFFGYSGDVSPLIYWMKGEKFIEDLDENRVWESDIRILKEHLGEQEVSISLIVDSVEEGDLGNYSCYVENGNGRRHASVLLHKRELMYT
Experimental: (§1) Neutralization of human IL-38 binding to IL1RAPL1 or IL-36R. Human IL1RAPL1-Fc (Sino Biological, #10177-H02H) and human IL-36R-Fc (R&D Systems) were diluted in coating Buffer (50 mM Carbonate-Bicarbonate Buffer, pH 9.4) at final concentration of 0.5 μg/mL and coated on MSD high bind plates (MSD) for approximately two hours at RT. Recombinant human IL-38 (Adipogen) was diluted in assay Diluent (1% BSA, 0.1% Tween 20, in 1×PBS). For antibody testing, anti-IL-38 antibodies were pre-incubated with IL-38 for approximately one hour at RT. IL-38 or antibody-IL-38 mixture was transferred to pre-coated MSD plates and incubated for approximately two hours at RT. After washing, the MSD plate was incubated with biotinylated mouse anti-human IL-38 (clone H127C, Thermo Fisher) at final concentration of 100 ng/mL and Sulfo-Tag-Streptavidin (MSD) at final concentration of 100 ng/mL for 1 hour at RT. Binding of IL-38 to plate-bound IL1RAPL1-Fc or human IL-36R-Fc was detected using the Meso Sector S 600 plate reader. Data are plotted using GraphPad Prism version 9.0.1. Dose response curves were fitted with “[Inhibitor] vs. response—Variable slope (four parameters)” method.

human IL-36R-Fc = biological target: T2, human IL-36R-Fc (human, UniProt Q9HB29 20-335, limits assumed); test: MSD plate assay, IL-38 on plate-bound IL-36R-Fc, detected with biotinylated anti-IL-38 clone H127C
T2 construct: Bought reagent
T2 sequence (looked up): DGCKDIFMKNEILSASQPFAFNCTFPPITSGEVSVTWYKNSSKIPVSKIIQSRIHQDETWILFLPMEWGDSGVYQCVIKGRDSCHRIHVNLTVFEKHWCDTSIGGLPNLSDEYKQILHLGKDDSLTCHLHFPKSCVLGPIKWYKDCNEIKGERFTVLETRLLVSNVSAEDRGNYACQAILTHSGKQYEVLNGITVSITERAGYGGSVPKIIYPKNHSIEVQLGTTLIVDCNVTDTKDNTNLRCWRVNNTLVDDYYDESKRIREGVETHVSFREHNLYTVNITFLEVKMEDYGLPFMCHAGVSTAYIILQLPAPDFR
Experimental: as §1

binding result (Human IL1RAPL1-Fc): binds
binding result (human IL-36R-Fc): binds
B1: human interleukin-38 (IL-38) (ligand, UniProt Q8WWZ1 1-152, looked up)
chain: MCSLPMARYYIIKYADQKALYTRDGQLLVGDPVADNCCAEKICILPNRGLARTKVPIFLGIQGGSRCLACVETEEGPSLQLEDVNIEELYKGGEEATRFTFFQSSSGSAFRLEAAAWPGWFLCGPAEPQQPVQLTKESEPSARTKFYFEQSW
notes: One entry is used for all sources of human IL-38; The Adipogen protein is called full length; also called IL1F10/IL38; IL1F10
